B1: wild-type Barley stripe mosaic virus coat protein (BSMV-CP) (other)
chain: MPNVSLTAKGGGHYIEDQWDTQVVEAGVFDDWWVHVEAWNKFLDNLRGINFSVASSRSQVAEYLAALDRDLPADVDRRFAGARGQIGSPNYLPAPKFFRLDKRTIAELTRLSRLTDQPHNNRDIELNRAKRATTNPSPPAQAPSENLTLRDVQPLKDSALHYQYVLIDLQSARLPVYTRKTFERELALEWIIPDAEEA
notes: Capsid subunit expressed in E. coli; many copies assemble into disks or rod-shaped VLPs; Rods of the wild type were obtained from the transcript carrying the TMV origin of assembly (RNA); also called BSMV capsid protein; wildtype BSMV VLPs
B2: BSMV-CP having a point mutation at residue D101N (other)
chain: MPNVSLTAKGGGHYIEDQWDTQVVEAGVFDDWWVHVEAWNKFLDNLRGINFSVASSRSQVAEYLAALDRDLPADVDRRFAGARGQIGSPNYLPAPKFFRLNKRTIAELTRLSRLTDQPHNNRDIELNRAKRATTNPSPPAQAPSENLTLRDVQPLKDSALHYQYVLIDLQSARLPVYTRKTFERELALEWIIPDAEEA
notes: Capsid subunit expressed in E. coli; self-assembles into rod-shaped VLPs; also called BSMV-CP-D101N
B3: BSMV-CP having a point mutation at residue D101R (other)
chain: MPNVSLTAKGGGHYIEDQWDTQVVEAGVFDDWWVHVEAWNKFLDNLRGINFSVASSRSQVAEYLAALDRDLPADVDRRFAGARGQIGSPNYLPAPKFFRLRKRTIAELTRLSRLTDQPHNNRDIELNRAKRATTNPSPPAQAPSENLTLRDVQPLKDSALHYQYVLIDLQSARLPVYTRKTFERELALEWIIPDAEEA
notes: Capsid subunit expressed in E. coli; self-assembles into rod-shaped VLPs; also called BSMV-D101R; BSMV-D101R VLPs
B4: BSMV-CP having point mutations at both residues E62Q and D101N (other)
chain: MPNVSLTAKGGGHYIEDQWDTQVVEAGVFDDWWVHVEAWNKFLDNLRGINFSVASSRSQVAQYLAALDRDLPADVDRRFAGARGQIGSPNYLPAPKFFRLNKRTIAELTRLSRLTDQPHNNRDIELNRAKRATTNPSPPAQAPSENLTLRDVQPLKDSALHYQYVLIDLQSARLPVYTRKTFERELALEWIIPDAEEA
notes: Capsid subunit expressed in E. coli; self-assembles into rod-shaped VLPs; also called E62Q/D101N; BSMV-CP-E62Q/D101N
B5: BSMV-CP having a point mutation at residue E62Q (other)
chain: MPNVSLTAKGGGHYIEDQWDTQVVEAGVFDDWWVHVEAWNKFLDNLRGINFSVASSRSQVAQYLAALDRDLPADVDRRFAGARGQIGSPNYLPAPKFFRLDKRTIAELTRLSRLTDQPHNNRDIELNRAKRATTNPSPPAQAPSENLTLRDVQPLKDSALHYQYVLIDLQSARLPVYTRKTFERELALEWIIPDAEEA
notes: Capsid subunit expressed in E. coli; self-assembles into rod-shaped VLPs; also called BSMV-CP-E62Q

Columns and labels:
[1] = biological target: the molecule itself; experiment: TEM of capsid self-assembly, E. coli, transcript with TMV OAS (only disks without OAS)
[2] = biological target: the molecule itself; experiment: TEM of capsid self-assembly

Row | Protein | binding result [1] | binding result [2]
1 | B1 | binds | 
2 | B2 |  | binds
3 | B3 |  | binds
4 | B4 |  | binds
5 | B5 |  | binds

Reference: patent publication US20240209382A1 (PURDUE RESEARCH FOUNDATION, published 2024)
